Measurements published in publication PMC10632352, “Nde1 promotes Lis1-mediated activation of dynein” (Nature Communications, 2023).
Where a chain is given by its changes, count along the chain named. In names and notes the source's numbering stands.

B1: human Lis1 (natural protein, UniProt P43034 1-410, looked up)
chain: MVLSQRQRDELNRAIADYLRSNGYEEAYSVFKKEAELDVNEELDKKYAGLLEKKWTSVIRLQKKVMELESKLNEAKEEFTSGGPLGQKRDPKEWIPRPPEKYALSGHRSPVTRVIFHPVFSVMVSASEDATIKVWDYETGDFERTLKGHTDSVQDISFDHSGKLLASCSADMTIKLWDFQGFECIRTMHGHDHNVSSVAIMPNGDHIVSASRDKTIKMWEVQTGYCVKTFTGHREWVRMVRPNQDGTLIASCSNDQTVRVWVVATKECKAELREHEHVVECISWAPESSYSSISEATGSETKKSGKPGPFLLSGSRDKTIKMWDVSTGMCLMTLVGHDNWVRGVLFHSGGKFILSCADDKTLRVWDYKNKRCMKTLNAHEHFVTSLDFHKTAPYVVTGSVDQTVKVWECR
modifications: benzylguanine dyes on the SNAP tag, by experiment: LD555, LD655, or Alexa488 and biotin
notes: Lis1 (noncatalytic beta subunit of PAF-AH1B), human; Homodimer by mass photometry; also called full-length Lis1; SNAP-Lis1; source: Sf9 (baculovirus, pOmniBac), purified (IgG Sepharose, TEV elution, Superdex 200 Increase SEC)
B2: mtLis1 (dynein-binding mutant of Lis1, R316A and W340A) (natural protein, human, UniProt P43034 1-410, looked up)
chain: B1 chain with R316A, W340A
modifications: LD555, or Alexa488 and biotin, on the SNAP tag in the colocalization assays
notes: Lis1, human, with R316A and W340A on the beta-propeller domain; forms a dimer like Lis1; source: Sf9 (baculovirus, pOmniBac), purified (IgG Sepharose, TEV elution, SEC)
B3: Nde1^E118A/R129A (Lis1 binding mutant of Nde1), Q9NXR1 1-335 (natural protein)
chain: MEDSGKTFSSEEEEANYWKDLAMTYKQRAENTQEELREFQEGSREYEAELETQLQQIETRNRDLLSENNRLRMELETIKEKFEVQHSEGYRQISALEDDLAQTKAIKDQLQKYIRELAQANDDLERAKAATIMSLEDFEQRLNQAIERNAFLESELDEKENLLESVQRLKDEARDLRQELAVQQKQEKPRTPMPSSVEAERTDTAVQATGSVPSTPIAHRGPSSSLNTPGSFRRGLDDSTGGTPLTPAARISALNIVGDLLRKVGALESKLASCRNLVYDQSPNRTGGPASGRSSKNRDGGERRPSSTSVPLGDKGLDTSCRWLSKSTTRSSSSC
modifications: here or on the partner: a fluorescent dye in the colocalization assays; LD655, or Alexa488 and biotin, where labelled
B4: Nde1^E118K/R129E (Lis1 binding mutant of Nde1), Q9NXR1 1-335 (natural protein)
chain: B3 chain with A118K, A129E
modifications: here or on the partner: a fluorescent dye in the colocalization assays; LD655, or Alexa488 and biotin, where labelled
B5: human Nde1 (natural protein, UniProt Q9NXR1 1-335, looked up)
chain: B3 chain with A118E, A129R
modifications: LD655 or LD555 dye where labelled
notes: Nde1, human; Labelled through a SNAP or a ybbR tag; also called full-length Nde1; WT Nde1; source: Sf9 (baculovirus, pOmniBac), purified (IgG Sepharose, TEV elution, Superdex 200 Increase SEC)
B6: Nde1^E118K/R129E (Lis1 binding mutant of Nde1) (natural protein, human, UniProt Q9NXR1 1-335, looked up)
chain: B3 chain with A118K, A129E
modifications: a fluorescent dye in the colocalization assays
notes: Nde1, human, with E118K and R129E; Probably in full-length Nde1; source: Sf9 (baculovirus, pOmniBac), purified (IgG Sepharose, TEV elution, SEC)
B7: Nde1^E47K (DIC binding mutant of Nde1) (natural protein, human, UniProt Q9NXR1 1-335, looked up)
chain: B3 chain with E47K, A118E, A129R
modifications: a fluorescent dye in the colocalization assays
notes: Nde1, human, with E47K; Probably in full-length Nde1; source: Sf9 (baculovirus, pOmniBac), purified (IgG Sepharose, TEV elution, SEC)
B8: Nde1^E118A/R129A (Lis1 binding mutant of Nde1) (natural protein, human, UniProt Q9NXR1 1-335, looked up)
chain: B3 chain
modifications: a fluorescent dye in the colocalization assays
notes: Nde1, human, with E118A and R129A; Probably in full-length Nde1; source: Sf9 (baculovirus, pOmniBac), purified (IgG Sepharose, TEV elution, SEC)
B9: Nde1^E47A (DIC binding mutant of Nde1) (natural protein, human, UniProt Q9NXR1 1-335, looked up)
chain: B3 chain with E47A, A118E, A129R
modifications: a fluorescent dye in the colocalization assays
notes: Nde1, human, with E47A; Probably in full-length Nde1; source: Sf9 (baculovirus, pOmniBac), purified (IgG Sepharose, TEV elution, SEC)
B10: Nde1^1–190 (N-terminus of human Nde1) (domain or fragment, UniProt Q9NXR1 1-190, looked up)
chain: MEDSGKTFSSEEEEANYWKDLAMTYKQRAENTQEELREFQEGSREYEAELETQLQQIETRNRDLLSENNRLRMELETIKEKFEVQHSEGYRQISALEDDLAQTKAIKDQLQKYIRELEQANDDLERAKRATIMSLEDFEQRLNQAIERNAFLESELDEKENLLESVQRLKDEARDLRQELAVQQKQEKPR
modifications: LD555 dye in the analytical SEC
notes: Nde1, human, N-terminal coiled-coil, residues 1-190 (C-terminus truncated); also called Nde1^1–190-LD555; source: Sf9 (baculovirus, pOmniBac), purified (IgG Sepharose, TEV elution, Superdex 200 Increase SEC)

Legend:
WT dynein-GFP (human) = WT dynein-GFP (human) (UniProt Q14204); assay: real-time TIRF of the initiation of DDR motility; microtubules decorated with WT dynein-GFP and Nde1-LD655 in the absence of Lis1; dynactin and BicDR1 (one of them LD555-labelled) flown in during imaging
[1] = target: wild-type human dynein (cytoplasmic dynein-1 complex) (human) (UniProt Q14204); assay: single-molecule colocalization (TIRF); dynein (Alexa488 and biotin on its SNAP tag, 0.2 nM) immobilised on streptavidin / biotin-PEG glass; labelled prey in MB buffer (30 mM HEPES pH 7.0, 5 mM MgSO4, 1 mM EGTA, casein, pluronic, DTT, Taxol), 10 min, unbound prey not washed away; third proteins added
[2] = target: dynein mutant unable to attain the phi conformation (mtDyn) (human) (UniProt Q14204); assay: as above
[3] = target: dynein-dynactin-BicDR1 complex assembled with wild-type human dynein (wtDDR) (human | pig | mouse) (UniProt Q14204); assay: three-color TIRF comigration on microtubules; 100 nM BicDR1-mNG, 10 nM LD555-Lis1 and 10 nM LD655-Nde1 preincubated with the DDR components; processive runs on surface-immobilised microtubules
Sequence of dynein-dynactin-BicDR1 complex assembled with wild-type human dynein (wtDDR) (human | pig | mouse) (Q14204 whole entry, looked up, one chain of several): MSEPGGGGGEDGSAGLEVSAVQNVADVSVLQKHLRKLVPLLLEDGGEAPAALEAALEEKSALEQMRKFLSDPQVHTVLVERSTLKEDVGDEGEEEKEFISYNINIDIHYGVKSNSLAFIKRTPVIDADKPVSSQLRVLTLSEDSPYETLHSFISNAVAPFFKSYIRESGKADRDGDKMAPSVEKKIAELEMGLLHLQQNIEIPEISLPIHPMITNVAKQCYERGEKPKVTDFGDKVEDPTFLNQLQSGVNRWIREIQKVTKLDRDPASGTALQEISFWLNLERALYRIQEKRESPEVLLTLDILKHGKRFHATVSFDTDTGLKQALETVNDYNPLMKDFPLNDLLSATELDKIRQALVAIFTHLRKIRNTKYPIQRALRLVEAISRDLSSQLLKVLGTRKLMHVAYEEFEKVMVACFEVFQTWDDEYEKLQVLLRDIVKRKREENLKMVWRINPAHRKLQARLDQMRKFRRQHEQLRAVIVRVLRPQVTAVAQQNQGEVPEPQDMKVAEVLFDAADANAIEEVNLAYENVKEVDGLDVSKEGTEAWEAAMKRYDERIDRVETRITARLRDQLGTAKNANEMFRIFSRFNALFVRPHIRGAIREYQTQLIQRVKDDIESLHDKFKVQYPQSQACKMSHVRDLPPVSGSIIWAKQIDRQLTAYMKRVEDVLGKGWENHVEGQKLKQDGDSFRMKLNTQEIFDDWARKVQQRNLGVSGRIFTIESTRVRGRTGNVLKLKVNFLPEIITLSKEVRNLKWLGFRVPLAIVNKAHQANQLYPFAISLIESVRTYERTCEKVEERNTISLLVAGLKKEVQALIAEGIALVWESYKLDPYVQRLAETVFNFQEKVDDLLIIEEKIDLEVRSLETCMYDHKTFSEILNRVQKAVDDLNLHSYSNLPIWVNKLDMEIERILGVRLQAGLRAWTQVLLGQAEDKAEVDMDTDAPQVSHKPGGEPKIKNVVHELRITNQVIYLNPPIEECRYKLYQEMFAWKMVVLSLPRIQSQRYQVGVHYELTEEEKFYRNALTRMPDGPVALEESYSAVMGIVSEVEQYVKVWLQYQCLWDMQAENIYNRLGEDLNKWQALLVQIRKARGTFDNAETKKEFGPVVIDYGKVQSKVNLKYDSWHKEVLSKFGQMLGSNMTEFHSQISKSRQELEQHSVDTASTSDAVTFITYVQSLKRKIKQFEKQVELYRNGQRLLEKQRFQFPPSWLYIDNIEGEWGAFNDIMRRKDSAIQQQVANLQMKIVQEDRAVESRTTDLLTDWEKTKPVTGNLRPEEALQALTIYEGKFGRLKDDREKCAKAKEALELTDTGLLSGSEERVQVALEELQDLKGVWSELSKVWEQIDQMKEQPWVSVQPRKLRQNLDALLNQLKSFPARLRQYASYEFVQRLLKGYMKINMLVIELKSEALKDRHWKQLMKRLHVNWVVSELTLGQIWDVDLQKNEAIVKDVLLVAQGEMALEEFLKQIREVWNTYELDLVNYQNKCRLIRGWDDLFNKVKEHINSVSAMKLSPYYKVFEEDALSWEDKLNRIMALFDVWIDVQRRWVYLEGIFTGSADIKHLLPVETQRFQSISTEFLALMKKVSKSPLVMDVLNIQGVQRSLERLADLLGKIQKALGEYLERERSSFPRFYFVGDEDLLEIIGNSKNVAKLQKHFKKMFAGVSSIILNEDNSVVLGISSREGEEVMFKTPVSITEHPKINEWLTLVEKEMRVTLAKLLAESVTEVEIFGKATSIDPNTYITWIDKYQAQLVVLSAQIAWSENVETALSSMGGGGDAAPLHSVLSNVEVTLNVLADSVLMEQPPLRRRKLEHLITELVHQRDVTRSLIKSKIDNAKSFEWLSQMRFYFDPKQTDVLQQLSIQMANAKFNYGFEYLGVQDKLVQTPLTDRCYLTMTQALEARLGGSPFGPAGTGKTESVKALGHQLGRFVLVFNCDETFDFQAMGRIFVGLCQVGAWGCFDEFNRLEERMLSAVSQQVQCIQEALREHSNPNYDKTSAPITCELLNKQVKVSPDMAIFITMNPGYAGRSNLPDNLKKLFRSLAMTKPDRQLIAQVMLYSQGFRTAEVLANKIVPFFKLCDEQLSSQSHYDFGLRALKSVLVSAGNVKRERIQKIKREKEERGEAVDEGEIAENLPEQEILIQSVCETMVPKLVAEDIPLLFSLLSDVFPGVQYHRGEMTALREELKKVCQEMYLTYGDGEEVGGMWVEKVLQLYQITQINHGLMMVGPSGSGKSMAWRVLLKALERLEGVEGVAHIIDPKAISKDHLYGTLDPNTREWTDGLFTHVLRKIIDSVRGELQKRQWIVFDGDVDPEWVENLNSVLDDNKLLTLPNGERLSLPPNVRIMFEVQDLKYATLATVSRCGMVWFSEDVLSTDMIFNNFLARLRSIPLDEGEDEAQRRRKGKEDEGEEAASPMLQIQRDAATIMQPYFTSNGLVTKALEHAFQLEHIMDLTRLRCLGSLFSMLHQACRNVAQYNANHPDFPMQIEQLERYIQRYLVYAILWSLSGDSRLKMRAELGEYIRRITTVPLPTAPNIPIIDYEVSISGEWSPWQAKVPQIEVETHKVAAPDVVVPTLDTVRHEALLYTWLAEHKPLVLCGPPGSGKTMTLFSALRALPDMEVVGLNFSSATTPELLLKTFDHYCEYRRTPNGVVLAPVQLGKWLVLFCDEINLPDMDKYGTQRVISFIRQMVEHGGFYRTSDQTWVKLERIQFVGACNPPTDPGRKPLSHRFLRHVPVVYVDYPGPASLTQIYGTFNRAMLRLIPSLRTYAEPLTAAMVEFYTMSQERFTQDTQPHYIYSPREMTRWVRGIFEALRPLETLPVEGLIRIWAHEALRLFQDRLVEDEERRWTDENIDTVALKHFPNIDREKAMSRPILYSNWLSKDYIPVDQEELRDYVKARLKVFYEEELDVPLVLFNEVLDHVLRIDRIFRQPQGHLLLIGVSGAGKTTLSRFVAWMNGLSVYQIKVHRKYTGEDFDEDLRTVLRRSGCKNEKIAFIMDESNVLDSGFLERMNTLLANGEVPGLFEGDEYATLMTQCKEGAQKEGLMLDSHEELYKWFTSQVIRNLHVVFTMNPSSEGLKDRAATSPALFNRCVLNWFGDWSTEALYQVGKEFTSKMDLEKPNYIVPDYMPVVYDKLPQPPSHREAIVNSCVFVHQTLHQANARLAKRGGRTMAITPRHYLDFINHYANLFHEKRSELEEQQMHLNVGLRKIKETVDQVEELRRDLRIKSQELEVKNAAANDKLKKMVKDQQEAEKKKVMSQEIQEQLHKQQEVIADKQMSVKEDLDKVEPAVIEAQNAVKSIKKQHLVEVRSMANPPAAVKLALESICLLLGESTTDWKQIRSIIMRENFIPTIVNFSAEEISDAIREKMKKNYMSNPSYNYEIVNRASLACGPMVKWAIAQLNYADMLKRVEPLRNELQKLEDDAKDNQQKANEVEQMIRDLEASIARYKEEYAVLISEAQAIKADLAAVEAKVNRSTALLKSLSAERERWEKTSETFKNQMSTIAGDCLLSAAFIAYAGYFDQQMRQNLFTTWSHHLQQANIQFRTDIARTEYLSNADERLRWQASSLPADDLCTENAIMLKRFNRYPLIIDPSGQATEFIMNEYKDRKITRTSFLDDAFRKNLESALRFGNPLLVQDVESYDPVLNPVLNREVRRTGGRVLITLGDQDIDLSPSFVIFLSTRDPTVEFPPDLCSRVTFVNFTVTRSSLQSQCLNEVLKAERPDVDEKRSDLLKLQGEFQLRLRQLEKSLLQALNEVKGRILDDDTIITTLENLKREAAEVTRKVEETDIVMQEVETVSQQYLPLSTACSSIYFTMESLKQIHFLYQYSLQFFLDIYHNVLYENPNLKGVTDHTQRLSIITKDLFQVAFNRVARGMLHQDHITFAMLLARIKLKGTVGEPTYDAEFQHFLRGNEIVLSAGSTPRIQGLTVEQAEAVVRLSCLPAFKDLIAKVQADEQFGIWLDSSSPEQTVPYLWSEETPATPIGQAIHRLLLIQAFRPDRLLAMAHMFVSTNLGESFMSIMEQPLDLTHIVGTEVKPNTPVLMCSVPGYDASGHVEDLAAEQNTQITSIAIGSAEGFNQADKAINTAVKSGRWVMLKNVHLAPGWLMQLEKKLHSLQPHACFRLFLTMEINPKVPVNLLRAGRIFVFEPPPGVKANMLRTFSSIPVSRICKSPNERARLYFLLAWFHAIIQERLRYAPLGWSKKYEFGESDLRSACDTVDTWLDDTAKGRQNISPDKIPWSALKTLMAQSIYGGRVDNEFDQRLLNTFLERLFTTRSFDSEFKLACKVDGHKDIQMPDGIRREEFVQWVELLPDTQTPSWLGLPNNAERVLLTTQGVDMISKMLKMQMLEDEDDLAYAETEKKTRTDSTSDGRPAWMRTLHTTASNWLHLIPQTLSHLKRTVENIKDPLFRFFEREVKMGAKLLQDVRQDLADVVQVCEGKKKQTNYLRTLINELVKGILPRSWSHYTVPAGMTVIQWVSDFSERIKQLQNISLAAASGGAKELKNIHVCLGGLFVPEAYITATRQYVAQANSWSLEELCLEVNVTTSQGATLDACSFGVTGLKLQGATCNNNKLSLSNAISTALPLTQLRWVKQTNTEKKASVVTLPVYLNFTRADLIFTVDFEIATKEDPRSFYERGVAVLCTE

[4] = target: wild-type human dynein (cytoplasmic dynein-1 complex) (human) (UniProt Q14204); assay: single-molecule colocalization (TIRF); dynein (Alexa488 and biotin on its SNAP tag, 0.2 nM) immobilised on streptavidin / biotin-PEG glass; labelled prey in MB buffer (30 mM HEPES pH 7.0, 5 mM MgSO4, 1 mM EGTA, casein, pluronic, DTT, Taxol), 10 min, unbound prey not washed away; third proteins added; remark: listed apart in the source
[5] = target: the molecule itself; assay: mass photometry; proteins diluted to 5–20 nM in 30 mM HEPES pH 7.4, 5 mM MgSO4, 1 mM EGTA, 10% glycerol; Refeyn TwoMP; profiles fitted to multiple Gaussians
[6] = target: dynein mutant unable to attain the phi conformation (mtDyn) (human), Q14204
[7] = target: dynein mutant unable to attain the phi conformation (mtDyn) (human) (UniProt Q14204)
Lis1^39–410 = target: T1, Lis1^39–410 (human, UniProt P43034 39-410); assay: cell-based or functional assay
T1 sequence (looked up): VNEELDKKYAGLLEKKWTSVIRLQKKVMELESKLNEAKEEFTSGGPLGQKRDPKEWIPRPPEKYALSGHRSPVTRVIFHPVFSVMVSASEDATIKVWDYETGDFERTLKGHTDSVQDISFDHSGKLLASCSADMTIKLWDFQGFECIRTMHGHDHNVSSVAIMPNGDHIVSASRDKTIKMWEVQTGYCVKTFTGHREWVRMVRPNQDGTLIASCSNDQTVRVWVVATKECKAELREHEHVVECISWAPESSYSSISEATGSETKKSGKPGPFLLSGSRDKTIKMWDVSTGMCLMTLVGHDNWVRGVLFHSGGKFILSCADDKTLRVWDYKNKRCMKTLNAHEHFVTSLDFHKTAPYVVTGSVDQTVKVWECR

human Lis1 = target: B1; assay: cell-based or functional assay

## pig brain dynactin (from UniProt A0A287B8J2 1-1281) (complex)
WT dynein-GFP (human)
  percent of dynein-colocalized Nde1 spots released: 96%
[1]
  percent reduction of Nde1 colocalization to dynein (150 nM dynactin, 25 nM Nde1): 37%
[2]
  percent reduction of Nde1 colocalization to dynein (150 nM dynactin, 25 nM Nde1): 75%

## B1
[3]
  percent of DDR complexes that co-migrate with Lis1: 70%
[4]
  average bound time: 12 s
  average bound time with Nde1 added: 35 s
[5]
  stoichiometry N: 2

## B2
[5]
  stoichiometry N: 2

## B3
[6]
  decrease of the frequency of mtDDR runs with 250 nM Nde1 mutant in the absence of Lis1: 50%

## B4
[6]
  decrease of the frequency of mtDDR runs with 250 nM Nde1 mutant in the absence of Lis1: 50%

## B5
[7]
  decrease of the frequency of mtDDR runs with 250 nM Nde1 in the absence of Lis1: 50%
[4]
  average bound time: 21 s
  average bound time with Lis1 added: 42 s
Lis1^39–410
  wtDDR run frequency on addition of 10 nM Nde1 with 100 nM Lis1^39–410: 3.2 fold
Human Lis1
  wtDDR run frequency on addition of 10 nM Nde1 with full-length Lis1: > 10 fold
[5]
  stoichiometry N: 2

## B6
[5]
  stoichiometry N: 2

## B7
[5]
  stoichiometry N: 2

## B8
[5]
  stoichiometry N: 2

## B9
[5]
  stoichiometry N: 2

## B10
[5]
  stoichiometry N: 2
